Assay [1] has as its target SARS-CoV-2 S1 (residues 1-682, Wuhan-Hu-1) (SARS-CoV-2 (Wuhan-Hu-1 strain), UniProt P0DTC2). The assay is described as follows: ELISA. The conditions noted are these: both partners purified. (In general: An ELISA detects its analyte on a solid surface through an enzyme-linked reagent.)
In assay [2] the target is T1, SARS-CoV-2 S receptor-binding domain (RBD, residues 329-538, Wuhan-Hu-1) (SARS-CoV-2 (Wuhan-Hu-1 strain), UniProt P0DTC2).
T1 construct: also called SARS-CoV-2 S RBD domain; not shown: Strep-tag, C-terminal, kept
The experiment in a line: ELISA. The conditions noted are these: both partners purified.

B1: REGN10987 (recombinant human IgG1/kappa) (antibody, V domains shown)
VH: QVQLVESGGGVVQPGRSLRLSCAASGFTFSNYAMYWVRQAPGKGLEWVAVISYDGSNKYYADSVKGRFTISRDNSKNTLYLQMNSLRTEDTAVYYCASGSDYGDYLLVYWGQGTLVTVSS
VL: QSALTQPASVSGSPGQSITISCTGTSSDVGGYNYVSWYQQHPGKAPKLMIYDVSKRPSGVSNRFSGSKSGNTASLTISGLQSEDEADYYCNSLTSISTWVFGGGTKLTVL
For the molecule B1, the binding result in assay [1] is given as “binds”.

B2: 87G7 human monoclonal antibody (recombinant human IgG1/kappa) (antibody, V domains shown)
VH: EVQLLESGGGLVQPGGSLRLSCVASGFTFSSYVMSWVRQAPGKGLEWVAAISGSGGNTYYADSVKGRFTISRDNSKNTLYLQMNSLRAEDTAVYYCAKEGTYYYGSGSFWGQGTLVTVSS
VL: EIVLTQSPATLSLSPGERATLSCRASQSFHNYLAWYQQKPGRAPRLLIFDASNRATGIPARFSGSGSGTDFTLTISSLEPEDFAVYYCQQRFNWPLTFGGGTKVEIK
notes: also called 87G7 IgG; 87G7 mAb
B2: the binding result in assay [2] and in assay [1] was “binds” throughout.

B3: REGN10933 (recombinant human IgG1/kappa) (antibody, V domains shown)
VH: QVQLVESGGGLVKPGGSLRLSCAASGFTFSDYYMSWIRQAPGKGLEWVSYITYSGSTIYYADSVKGRFTISRDNAKSSLYLQMNSLRAEDTAVYYCARDRGTTMVPFDYWGQGTLVTVSS
VL: DIQMTQSPSSLSASVGDRVTITCQASQDITNYLNWYQQKPGKAPKLLIYAASNLETGVPSRFSGSGSGTDFTFTISGLQPEDIATYYCQQYDNLPLTFGGGTKVEIK
notes: source: HEK-293T, transient transfection, purified (Protein A Sepharose)
For B3, the binding result in assay [2] and in assay [1] was “binds” throughout.

These data come from PMC9097884 (Science Immunology, 2022).
